From patent US20220259330A1 (SUNSHINE GUOJIAN PHARMACEUTICAL SHANGHAI, published 2022)
Numbering of substitutions follows the chain as printed. Numbers in names are those of the source. Where “and” joins values, the source holds several entries; their conditions need not be identical. Equal values may be shown once. Blank lines part the entries; values can stand above or below the binder they belong to.

Assays:
[1] = target: T1, VEGF165-His (human, UniProt P15692-4 27-191); test: ELISA, plate coated with VEGF165-His
T1 construct: also called Human VEGF165 with a 6*His tag
T1 sequence: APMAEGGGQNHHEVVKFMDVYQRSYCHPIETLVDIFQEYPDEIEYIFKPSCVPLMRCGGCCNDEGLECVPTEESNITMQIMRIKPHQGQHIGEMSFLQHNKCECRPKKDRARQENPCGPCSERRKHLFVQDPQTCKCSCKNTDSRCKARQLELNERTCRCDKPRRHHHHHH
Protocol: The ELISA detection method used in the following examples is described as follows: An ELISA plate was coated with recombinant proteins, respectively, and blocked with PBST containing 1% bovine serum albumin (PBST: phosphate buffer containing 0.05% Tween-20). The antibody to be tested was serially diluted, and then transferred to the above plate coated with recombinant protein, incubated at room temperature for half an hour and then the plate was washed; an appropriately diluted HRP (Horseradish Peroxidase)-labeled goat anti-human antibody (Fc- or Fab Specific, purchased from Sigma) was added, incubated at room temperature for half an hour and then the plate was washed; 100 μl of chromogenic solution with TMB (3,3′,5,5′-Tetramethylbenzidine) as a substrate was added to each well, incubated at room temperature for 1-5 min; 50 μl of stop solution (2M H₂SO₄) was added to stop the reaction. OD450 was read with a microplate reader (SpectraMax 190), and graphing and data analysis were performed using GraphPad Prism6, and EC50 was calculated.
Human VEGF165 with a 6*His tag (sequence from NCBI, Accession: AAM03108), and this recombinant protein was denoted as VEGF165-His. An ELISA plate was coated with PD1-His and VEGF165-His, with a coating concentration of 20 ng/well and 10 ng/well, respectively.

[2] = target: T1, VEGF165-His; test: SPR, Biacore 8K, antibody captured on Protein A/G chip, VEGF165-His injected
Protocol: Herein, the affinity of the above antibodies to PD-1 or VEGF was determined by Biacore 8K (GE healthcare). On Biacore 8K, the chip coupled with Protein A/G was used to capture various antibodies, respectively, and then the recombinant protein PD1-His or VEGF165-His was injected to obtain the binding-dissociation curve, which was eluted with 6M guanidine hydrochloride regeneration buffer for next cycle. Data were analyzed using the Biacore 8K Evaluation Software.

[3] = target: T2, CD137-ECD-Fc (human, UniProt Q07011 24-186); test: ELISA, plate coated with CD137-ECD-Fc
T2 construct: extracellular domain; Bought; also called recombinant protein of the extracellular segment of human CD137 with Fc tags (Sino Biological 10041-H02H); not shown: Fc tag
T2 sequence (Q07011 24-186): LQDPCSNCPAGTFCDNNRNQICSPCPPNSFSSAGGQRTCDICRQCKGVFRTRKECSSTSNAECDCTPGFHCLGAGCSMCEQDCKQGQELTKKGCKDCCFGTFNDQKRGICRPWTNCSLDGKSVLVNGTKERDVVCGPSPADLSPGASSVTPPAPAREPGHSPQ

[4] = target: T3, CD47-ECD-His (human, UniProt Q08722 19-139); test: ELISA, plate coated with CD47-ECD-His
T3 construct: extracellular domain; Bought; also called recombinant protein of the extracellular segment of human CD47 with a polyhistidine tag (Sino Biological 12283-H08H); not shown: polyhistidine tag
T3 sequence (Q08722 19-139 limits assumed): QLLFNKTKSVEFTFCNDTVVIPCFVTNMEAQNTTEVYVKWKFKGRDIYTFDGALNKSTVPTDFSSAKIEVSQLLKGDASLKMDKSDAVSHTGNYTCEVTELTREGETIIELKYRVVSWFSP

[5] = target: T4, HER2-ECD-His (human, UniProt P04626 23-652); test: ELISA, plate coated with HER2-ECD-His
T4 construct: extracellular domain; Bought; also called recombinant protein of the extracellular segment of human Her-2 with a polyhistidine tag (ACROBiosystems HE2-H5225); not shown: polyhistidine tag

[6] = target: T5, PD1-ECD-His (human, UniProt Q15116 25-170); test: ELISA, plate coated with PD1-ECD-His
T5 construct: extracellular domain; Bought; also called recombinant protein of the extracellular segment of human PD-1 with a polyhistidine tag (Sino Biological 10377-H08H); not shown: polyhistidine tag
T5 sequence (Q15116 25-170): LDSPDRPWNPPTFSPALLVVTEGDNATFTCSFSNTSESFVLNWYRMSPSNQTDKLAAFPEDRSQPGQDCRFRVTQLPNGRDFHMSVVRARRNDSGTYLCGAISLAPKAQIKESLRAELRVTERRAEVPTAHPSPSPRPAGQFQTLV

[7] = target: T6, CD40-ECD-His (human, UniProt P25942 21-193); test: ELISA, plate coated with CD40-ECD-His
T6 construct: extracellular domain; Bought; also called recombinant protein of the extracellular segment of human CD40 with a polyhistidine tag (Sino Biological 10774-H08H); not shown: polyhistidine tag
T6 sequence (P25942 21-193): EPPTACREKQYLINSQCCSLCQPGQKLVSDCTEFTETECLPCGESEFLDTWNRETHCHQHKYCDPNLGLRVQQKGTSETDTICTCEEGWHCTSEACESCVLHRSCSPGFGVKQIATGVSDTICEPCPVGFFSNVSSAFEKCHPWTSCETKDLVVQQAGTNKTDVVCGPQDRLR

Kd [2]: 0.00746 nM | koff [2]: 2.91e-05 s⁻¹ | kon [2]: 3.9e+06 M⁻¹ s⁻¹
B3: 601-HC+601-LC-V94L (antibody, human IgG1, kappa, V domains shown)
VH: EVQLVESGGGLVQPGGSLRLSCAASGYTFTNYGMNWVRQAPGKGLEWVGWINTYTGEPTYAADFKRRFTFSLDTSKSTAYLQMNSLRAEDTAVYYCAKYPHYYGSSHWYFDVWGQGTLVTVSS
VL: DIQMTQSPSSLSASVGDRVTITCSASQDISNYLNWYQQKPGKAPKVLIYFTSSLHSGVPSRFSGSGSGTDFTLTISSLQPEDFATYYCQQYSTLPWTFGQGTKVEIKR

EC50 [1]: 0.133 nM
B5: 601-HC+601-LC-D28G (antibody, human IgG1, kappa, V domains shown)
VH: B3 VH
VL: B3 VL with D28G, L94V

EC50 [1]: 0.148 nM
B6: 601-HC+601-LC-F71Y (antibody, human IgG1, kappa, V domains shown)
VH: B3 VH
VL: B3 VL with F71Y, L94V

EC50 [1]: 0.208 nM
B8: 601-HC+601-LC-N34S (antibody, human IgG1, kappa, V domains shown)
VH: B3 VH
VL: B3 VL with N34S, L94V

EC50 [1]: 0.326 nM
B9: 601-HC+601-LC-V46L (antibody, human IgG1, kappa, V domains shown)
VH: B3 VH
VL: B3 VL with V46L, L94V

binding result [6]: no binding | binding result [7]: no binding
B15: Anti-CD40-Hu-HC+609-LC (antibody, human IgG4 S228P, kappa, V domains shown)
VH: QIQLVQSGSELKKPGASVKVSCKASGYAFTTTGMQWVREAPGQGLEWIGWINTHSGVPKYVEDFKGRFVFSLDTSVNTAYLQISSLKAEDTAVYYCVRSGNGNYDLAYFAYWGQGTLVTVSS
VL: EIVLTQSPATLSLSPGERATLSCRASQSISNFLHWYQQKPGQAPRLLIKYASQSISGIPARFSGSGSGTDFTLTISSLEPEDFAVYFCQQSNSWPHTFGQGTKVEIKR
notes: Hybrid antibody

EC50 [6]: 1.02 nM | EC50 [7]: 0.0956 nM
B16: 40-Fab-609-IgG4 (bispecific antibody)
heavy: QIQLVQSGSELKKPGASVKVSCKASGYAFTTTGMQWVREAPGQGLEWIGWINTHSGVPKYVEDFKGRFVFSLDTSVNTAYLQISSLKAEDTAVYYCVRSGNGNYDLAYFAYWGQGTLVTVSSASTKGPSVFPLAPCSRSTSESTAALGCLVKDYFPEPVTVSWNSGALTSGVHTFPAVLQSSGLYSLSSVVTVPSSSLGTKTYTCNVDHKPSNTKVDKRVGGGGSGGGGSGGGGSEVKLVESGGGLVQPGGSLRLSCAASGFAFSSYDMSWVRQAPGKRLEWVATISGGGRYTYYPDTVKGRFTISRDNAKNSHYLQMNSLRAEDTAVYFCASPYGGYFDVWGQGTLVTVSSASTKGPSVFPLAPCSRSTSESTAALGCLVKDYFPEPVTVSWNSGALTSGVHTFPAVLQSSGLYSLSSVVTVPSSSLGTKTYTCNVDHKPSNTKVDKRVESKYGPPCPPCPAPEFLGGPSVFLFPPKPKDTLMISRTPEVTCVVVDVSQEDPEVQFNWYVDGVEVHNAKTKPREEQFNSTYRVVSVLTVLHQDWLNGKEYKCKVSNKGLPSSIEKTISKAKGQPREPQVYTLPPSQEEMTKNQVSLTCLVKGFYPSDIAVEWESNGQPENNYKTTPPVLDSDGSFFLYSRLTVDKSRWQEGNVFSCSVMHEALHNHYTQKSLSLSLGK
light: EIVLTQSPATLSLSPGERATLSCRASQSISDYLHWYQQKPGQSPRLLIKYASHSISGIPARFSGSGSGSDFTLTISSLEPEDFAVYYCQHGHSFPWTFGQGTKVEIKRTVAAPSVFIFPPSDEQLKSGTASVVCLLNNFYPREAKVQWKVDNALQSGNSQESVTEQDSKDSTYSLSSTLTLSKADYEKHKVYACEVTHQGLSSPVTKSFNRGEC

EC50 [6]: 0.172 nM | EC50 [7]: 0.105 nM
B17: 609-Fab-40-IgG4 (bispecific antibody)
heavy: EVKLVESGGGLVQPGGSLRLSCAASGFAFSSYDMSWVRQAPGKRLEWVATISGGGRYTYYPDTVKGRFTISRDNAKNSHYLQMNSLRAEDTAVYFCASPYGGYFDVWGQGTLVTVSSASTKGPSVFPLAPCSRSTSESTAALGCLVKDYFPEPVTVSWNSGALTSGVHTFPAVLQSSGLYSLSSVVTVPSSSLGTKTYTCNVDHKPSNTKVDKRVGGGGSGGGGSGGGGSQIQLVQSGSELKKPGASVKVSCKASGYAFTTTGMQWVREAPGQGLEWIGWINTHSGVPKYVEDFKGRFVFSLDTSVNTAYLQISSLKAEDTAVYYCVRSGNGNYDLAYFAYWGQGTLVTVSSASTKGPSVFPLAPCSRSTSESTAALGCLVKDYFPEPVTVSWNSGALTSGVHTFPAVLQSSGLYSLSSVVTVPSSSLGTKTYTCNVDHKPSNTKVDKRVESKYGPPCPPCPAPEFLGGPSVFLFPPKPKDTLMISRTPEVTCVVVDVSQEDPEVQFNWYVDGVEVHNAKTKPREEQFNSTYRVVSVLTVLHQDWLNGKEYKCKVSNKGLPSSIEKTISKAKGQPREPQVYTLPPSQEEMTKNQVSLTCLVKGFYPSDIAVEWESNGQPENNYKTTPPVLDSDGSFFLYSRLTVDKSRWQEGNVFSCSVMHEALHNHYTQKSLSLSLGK
light: B16 light

binding result [6]: no binding | binding result [3]: no binding
B18: Anti-CD137-Hu-HC+609-LC (antibody, human IgG4 S228P, kappa, V domains shown)
VH: QVQLVQSGAEVKKPGASVKVSCKASGYTFSSYWMHWVRQAPGQGLEWMGEINPGNGHTNYNEKFKSRVTLTVDKSTSTVYMELSSLRSEDTAVYYCARSFTTARGFAYWGQGTLVTVSS
VL: B15 VL
notes: Hybrid antibody

EC50 [4]: 0.195 nM | EC50 [5]: 0.154 nM
B20: 19H6-Fab-CD47B-IgG1 (bispecific antibody)
heavy: not shown
light: DVVMTQSPLSLPVTLGQPASISCRSSQSLVHSNGNTYLHWYQQRPGQSPRLLIYKVSNRFSGVPDRFSGSGSGTDFTLKISRVEAEDVGVYFCSQSTHIPWTFGQGTKVEIKRTVAAPSVFIFPPSDEQLKSGTASVVCLLNNFYPREAKVQWKVDNALQSGNSQESVTEQDSKDSTYSLSSTLTLSKADYEKHKVYACEVTHQGLSSPVTKSFNRGEC

Continued, binder first:

B1: 601-HC+20-Hu-LC (antibody, human IgG1, kappa, V domains shown)
VH: B3 VH
VL: DIQMTQSPSSLSASVGDRVTITCSASQGISNFLSWYQQKPGKTVKLLIYYTSSLHSGVPSRFSGSGSGTDYTFTISSLQPEDIATYYCQQYSNLPWTFGQGTKVEIKR
notes: Hybrid antibody
EC50 [1]: 8.22 nM

B2: 601-HC+601-LC-Y32F (antibody, human IgG1, kappa, V domains shown)
VH: B3 VH
VL: B3 VL with Y32F, L94V
EC50 [1]: 0.125 nM

B4: 601-HC+601-LC-F50Y (antibody, human IgG1, kappa, V domains shown)
VH: B3 VH
VL: B3 VL with F50Y, L94V
EC50 [1]: 0.14 nM

B7: 601-HC+601-LC-T93N (antibody, human IgG1, kappa, V domains shown)
VH: B3 VH
VL: B3 VL with T93N, L94V
EC50 [1]: 0.126 nM

B10: 19H6-Hu (antibody, human IgG1, kappa, V domains shown)
VH: QVQLVQSGAEVKKPGASVKVSCKGSGYTFTDYAIHWVRQAPGQSLEWIGVFSIYYENINYNQKFKGRATMTVDKSTSTAYMELRSLRSDDTAVYYCARRDGGTINYWGQGTLVTVSS
VL: DVVMTQSPLSLPVTLGQPASISCRSSQSLVHSNGNTYLHWYQQRPGQSPRLLIYKVSNRFSGVPDRFSGSGSGTDFTLKISRVEAEDVGVYFCSQSTHIPWTFGQGTKVEIKR
notes: Humanized anti-human HER2, IgG1, kappa; also called 19H6-Hu-HC+19H6-Hu-LC
binding result [3]: no binding | binding result [4]: no binding | EC50 [5]: 0.077 nM and 0.126 nM and 0.122 nM and 0.193 nM

B11: Anti-CD47B-Hu (antibody, human IgG1, kappa, V domains shown)
VH: QVQLVQSGAEVKKPGASVKVSCKASGYTFANHVIHWVRQAPGQGLEWMGYIYPYNDGTKYNEKFKDRVTLTSDKSTSTVYMELSSLRSEDTAVYYCARGGYYTYDDWGQGTLVTVSS
VL: B10 VL with N35K, F92Y, I99V, W101Y
notes: Humanized anti-human CD47, IgG1, kappa; also called humanized MABL-2
EC50 [4]: 0.0428 nM | binding result [5]: no binding

B12: Anti-CD47B-Hu-HC+19H6-Hu-LC (antibody, human IgG1, kappa, V domains shown)
VH: B11 VH
VL: B10 VL
notes: Hybrid antibody
EC50 [4]: 0.0541 nM and 0.0617 nM | binding result [5]: no binding

B13: 19H6-Hu-HC+Anti-CD47B-Hu-LC (antibody, human IgG1, kappa, V domains shown)
VH: B10 VH
VL: B10 VL with N35K, F92Y, I99V, W101Y
notes: Hybrid antibody
binding result [4]: no binding | EC50 [5]: 0.139 nM

B14: Anti-CD40-Hu (antibody, human IgG4 S228P, kappa, V domains shown)
VH: B15 VH
VL: EIVLTQSPATLSLSPGERATLSCRASQSISDYLHWYQQKPGQSPRLLIKYASHSISGIPARFSGSGSGSDFTLTISSLEPEDFAVYYCQHGHSFPWTFGQGTKVEIKR
notes: Humanized anti-human CD40, IgG4 (S228P), kappa; also called humanized MAb2.220
binding result [6]: no binding | EC50 [7]: 0.11 nM

B19: CD47B-Fab-19H6-IgG1 (bispecific antibody)
heavy: not shown
light: B20 light
EC50 [4]: 0.0782 nM | EC50 [5]: 0.106 nM
